Data from paper PMC11793827 (PLOS Pathogens, 2025).

How the values were obtained:
[1] = biological target: T1, Omicron BA.5 SARS-CoV-2 RBD (SARS-CoV-2, Omicron BA.5 (RBD same as …, strain)); assay: ELISA; conditions: both partners purified
T1 construct: also called Omicron BA.5 RBD; BA.5 RBD

[2] = biological target: T2, Omicron BA.1 SARS-CoV-2 RBD (SARS-CoV-2, Omicron BA.1, Q493R); assay: ELISA; conditions: both partners purified
T2 construct: also called Omicron BA.1 RBD; BA.1 RBD

B1: BP3D5 (VHH)
VHH: EVQLQASGGGFVQPGGSLRLSCAASGRAFRIYTMGWFRQAPGKEREFVSAISAGDGAASYYADSVKGRFTISRDNSKNTVYLQMNSLRAEDTATYYCAQYWQSINPIYWGQGTQVTVSS
notes: also called HCAb BP3D5
Kd [1]: 1.83 nM
Kd [2]: 1.12 nM
